Among the data in patent US20100260769A1 (MORPHOTEK, published 2010) are binding result and IC50 values, retold here.

Test [1] deals with T1, full length human TEM1 (endosialin) with a C-terminal V5-His tag, expressed in A431-TEM1 cells / tumor … (human, UniProt Q9HCU0 18-757).
T1 construct: Target in tissue sections of A431-TEM1 tumor xenografts; also called hTEM1; endosialin/TEM1
T1 sequence: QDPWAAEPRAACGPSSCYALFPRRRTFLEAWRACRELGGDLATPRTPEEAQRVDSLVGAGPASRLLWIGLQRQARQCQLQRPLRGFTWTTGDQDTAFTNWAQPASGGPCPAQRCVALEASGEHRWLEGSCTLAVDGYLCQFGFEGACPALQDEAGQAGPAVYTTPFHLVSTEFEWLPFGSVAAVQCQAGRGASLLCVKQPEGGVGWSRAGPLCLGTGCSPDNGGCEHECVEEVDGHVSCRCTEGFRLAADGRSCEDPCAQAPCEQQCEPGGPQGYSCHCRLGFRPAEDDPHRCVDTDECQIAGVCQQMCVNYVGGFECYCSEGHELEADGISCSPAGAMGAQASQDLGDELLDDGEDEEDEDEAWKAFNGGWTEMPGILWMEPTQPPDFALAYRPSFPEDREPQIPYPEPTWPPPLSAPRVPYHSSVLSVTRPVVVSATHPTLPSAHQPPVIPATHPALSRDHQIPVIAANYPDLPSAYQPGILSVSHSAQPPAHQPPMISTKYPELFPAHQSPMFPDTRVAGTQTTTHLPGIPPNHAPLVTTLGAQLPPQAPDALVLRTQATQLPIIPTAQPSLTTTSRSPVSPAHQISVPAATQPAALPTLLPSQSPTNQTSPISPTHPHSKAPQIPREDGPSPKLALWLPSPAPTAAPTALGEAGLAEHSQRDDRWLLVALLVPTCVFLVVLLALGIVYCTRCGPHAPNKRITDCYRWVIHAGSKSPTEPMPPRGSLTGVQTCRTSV
Description: IHC on FFPE A431-TEM1 tumor xenograft sections, biotinylated antibody at 20 µg/ml.

For test [2], the target named is soluble human endosialin extracellular domain-mouse Fc fusion protein (human; mouse). Description: competition ELISA: hTEM1-Fc (15 µg/mL) preincubated with serial dilutions of antibody, binding to fibronectin-coated plate detected with anti-mouse HRP.
Test [3] addresses T2, mouse TEM1 extracellular domain (ECD)-Fc fusion protein (mouse, UniProt Q91V98 18-695).
T2 construct: also called mouse TEM1-Fc
T2 sequence: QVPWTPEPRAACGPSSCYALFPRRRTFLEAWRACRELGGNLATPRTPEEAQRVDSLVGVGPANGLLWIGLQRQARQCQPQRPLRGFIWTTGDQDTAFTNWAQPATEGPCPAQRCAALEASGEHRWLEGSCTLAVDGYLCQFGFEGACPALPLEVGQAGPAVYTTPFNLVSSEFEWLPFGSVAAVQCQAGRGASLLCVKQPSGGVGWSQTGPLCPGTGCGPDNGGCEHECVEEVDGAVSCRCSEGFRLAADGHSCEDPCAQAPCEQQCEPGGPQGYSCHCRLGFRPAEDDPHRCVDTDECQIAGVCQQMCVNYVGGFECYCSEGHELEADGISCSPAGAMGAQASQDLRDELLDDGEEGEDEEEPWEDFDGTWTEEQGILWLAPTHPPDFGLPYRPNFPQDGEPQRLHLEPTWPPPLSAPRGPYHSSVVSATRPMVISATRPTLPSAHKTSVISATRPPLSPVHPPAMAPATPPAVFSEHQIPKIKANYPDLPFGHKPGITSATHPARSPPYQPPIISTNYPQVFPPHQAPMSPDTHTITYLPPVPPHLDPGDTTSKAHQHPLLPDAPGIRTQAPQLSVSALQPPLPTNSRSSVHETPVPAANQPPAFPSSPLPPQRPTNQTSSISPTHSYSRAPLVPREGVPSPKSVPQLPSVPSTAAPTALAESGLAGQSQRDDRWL
Kind of test: hybridoma screening ELISA on TEM1-Fc protein, Fc-reactive clones removed by counterscreen. How it is done: To generate rabbit anti-mouse endosialin (TEM1) antibody clone 8, we immunized two New Zealand white rabbits with four injections of mouse TEM1 extracellular domain (ECD)-Fc fusion protein. Antiserum titer was monitored using standard ELISA (TEM1) and counterscreen ELISA for Fc reactivity. A final IV boost was performed within 4-8 weeks of the last regular injection boost. Splenectomies were performed after the final IV boost. Lymphocytes were isolated from each rabbit spleen. Fusions with 240E-W3 cells (Epitomics) were performed in forty 96-well plates. Standard ELISA screening for 40 plates was performed using TEM1-Fc protein. All positive hybridomas were expanded to 24-well plates and confirmatory standard and differential ELISA were performed. Fc reactive clones were counterscreened and removed, leaving the TEM1-reactive clones. Positive hybridomas were expanded for Ig gene sequencing and generation of purified Ab. One positive hybridoma was assigned the designation clone 8.
A general note: In an ELISA, binding on a coated surface is turned into a signal by an enzyme label.

B1: rabbit anti-human endosialin monoclonal antibody 1-55-2 (antibody, V domains shown)
VH: QQQLMESGGDLVKPEGSLTLTCTASGFSFSSSYWGCWVRQAPGKGPEWIACIYGGSSGTTYYPNWAKGRFSISKTSSTTVTLQMASLTAADTATYFCARVTNGGDWDFKLWGPGTLVTVSS
VL: ELVMTQTPASVEVAVGGTVTIKCQASQSINTYLAWYQQKPGQPPKLLIYRASTLASGVPSRFKGSGSGTEFTLTISDLECADAATYYCQQSVRVIDVDNTFGGGTEVVVK
notes: Rabbit IgG from a hybridoma, kappa light chain; rabbit constant regions are not; also called hybridoma 1-55-2 (ATCC PTA-9652)
In general, IC50 refers to the concentration that inhibits the measured activity by half. As for B1, the binding result in test [1] is “binds”. For the same molecule, in test [2], the 50% inhibitory concentration (IC50) was found to be 69.5 µg/mL.

B2: rabbit anti-human endosialin monoclonal antibody 1-25-2 (antibody, V domains shown)
VH: AQSLEESGGDLVKPEGSLTLTCTASGFSFSSSYWGCWVRQAPGKGPEWIACIYGGSSGTTYYPNWAKGRFSISKTSSTTVTLQMASLTAADTATYFCARVTNGGDWDFKLWGPGTLVTISS
VL: ELVLTQTPASVEVAVGGTVTIKCQASQTINNYLTWYQQKPGQPPKLLIYRASTLASGVPSRFKGSGSGTEFTLTISDLECADAATYYCQQTVRVVDVDNSFGGGTEVVVK
For the molecule B2, the IC50 in test [2] was determined as 41.5 µg/mL.

B3: rabbit anti-mouse endosialin monoclonal antibody clone 8 (antibody, V domains shown)
VH: AQSVEESGGGLVKPEGSLTLSCKASGFSFSNNSYICWVRQAPGKGLEWIACIEFGRGNSHYASWAKGRFTITRSTSLNTVTLQLNSLTAADTATYFCARGSRGVGYGYGLWGPGTLVTISS
VL: ELDMTQTPSPVSAAVGGTVTINCQASQSVYSNSRLSWYQQKPGQPPKQLIYSASTLASGVPSRFKGSGSGTHFTLTLSGVQCDDAATYYCQGEFACSSADCSAFGGGTELEILK
notes: Rabbit IgG from a hybridoma, kappa light chain; rabbit constant regions are not; also called hybridoma clone 8 (ATCC PTA-9651)
For the molecule B3, the binding result in test [3] is listed as “binds”.

B4: rabbit anti-human endosialin monoclonal antibody 1-3-1 (antibody, V domains shown)
VH: AQSVEESGGDLVRPGASLTLTCSASGFTINRNYWICWVRQAPGRGPEWIACIYGGSSGTTYYTNWAKGRFTISKAASTTVTLQMTSLTVADTATYFCARVDNGGDWYFRLWGPGTLVTISS
VL: ELDLTQTPASVEVAVGGTVTIKCQASQSISSYLAWYQQKPGQPPKLLIYRASTLASGVSSRFKGSGSGTEFTLTISGVQCDDAATYYCQQGVRVVDIDNSFGGGTELVVK
In test [2], B4 yielded an IC50 of 21.4 µg/mL.
